Experiments:
astrocytes = test: Filipin staining of astrocytes; type: cell-based, rat; conditions: about 5 h
Procedure: Leptin was detected using a rabbit polyclonal antibody raised against mouse leptin, corss-reacting with human leptin (obtained from Dr. A. F. Parlow, Harbor-UCLA, CA). Immunofluorescent confocal microscopy was performed on 2% paraformaldehyde-fixed primary neural cells. Filipin staining was performed as described (Feng et al., Nat Cell Biol. 5:781-92 (2003)).
Neural cultures from ε15 rat cerebral cortex were processed for enrichment of neurons (a-d) or astrocytes (e-h) as described (Takeshima et al., J. Neurosci. Methods 67: 27-41 (1996)). After about 7 days to about 10 days in culture, cultures were treated for about 5 h with about 10 μg/ml cholesterol (b, f) or about 400 ng/ml leptin plus cholesterol (c, g) or leptin alone (d, h). Controls (a, e) were treated with culture media alone. Filipin staining was performed as described (Feng et al., Nat. Cell Biol. 5: 781-92 (2003)). Neurons (i-k) and astrocytes (l-n) prepared as above were treated with 0 μM (i, l), 5 μM (j, m) or 10 μM cholesterol (k, n) for 5 h. Immunostaining was performed for leptin (A.F.Parlow, Harbor-UCLA, CA).

SY5Y cells = test: 125I-Aβ uptake by SY5Y cells (apoE-dependent); type: cell-based, human
Procedure: Preparation of ApoE and binding with ^125I-Aβ. ApoE was isolated from the conditioned media of human embryonic kidney (HEK-293) cells stably-transfected with human apoE (having the ε3 allele or the ε4 allele) cDNA (Tezapsidis et al., FASEB J. 17:1322-1324 (2003)). These preparations, while usually poor in lipid, are fully functional for uptake experiments. ApoE then was pre-incubated with ^125I-Aβ overnight at 37° C. (Aβ/ApoE: 1/50 w/w) as described (Tezapsidis et al., FASEB J. 17:1322-1324 (2003)).
Aβ-uptake by SY5Y cells. Human ^125I-Aβ (iodinated at Tyr-10, Amersham Biosciences, IM 294) uptake was measured following addition of 0.1 nM ^125I-Aβ40 (SEQ ID NO: 4) to confluent SY5Y cells (60,000 cpm/ml) in the presence or absence of 100 ng/ml or 400 ng/ml leptin also included in a 24 h pre-incubation period. ^125I-Aβ was either added alone or was previously incubated with apoε3. In controls, Receptor Associated Protein (“RAP”, 1 μM) was added together with Aβ or the Aβ/apoE complex. RAP is an antagonist of a number of lipoprotein receptors (LaDu et al., Neurochem Int. 39:427-34 (2001)). After 24 h, the media were collected and subjected to scintillation counting for γ-Iradiation (Kang et al., 2000. J Clin Invest. 106:1159-66 (2000)). The amount of radioactivity was measured in both the trichloroacetic acid (10%) TCA pellets (representing intact Aβ) and the corresponding supernatants (representing degraded Aβ). 96.5±8.2% (mean±s.e.m., n=4 experiments, triplicate determinations) of the radioactivity found in the medium could be recovered in the TCA pellet and represented intact or oligomeric Aβ (not shown), when Aβ was pre-incubated with apoE.
The amount of TCA-precipitable radioactivity in the soluble fraction of cell lysates was compared to that in the total lysates, the ratio of which was typically about 0.8 to about 0.9 (not shown), to further verify that radioactivity was reduced in the media as a reflection of Aβ uptake by the cells, rather than due to non-specific binding to the extracellular surface of membranes or oligomerization/aggregation of Aβ.
In panel (a), Aβ uptake was measured in SY5Y cells following their treatment at 0 ng/ml, 100 ng/ml or 400 ng/ml leptin. Uptake also was measured in cells previously transfected with antisense DNA for PS1 as described (Tezapsidis et al., FASEB J. 17:1322-1324(2003)) (black). Uptake is expressed as the percentage of that observed with Aβ pre-incubated with apoε3 (medium gray) in the absence of leptin (first set of columns). […] Leptin induced a dose-dependent increase in Aβ uptake with a preference for apoε3 (medium gray) over apoε4 (light gray). In panel (b), SY5Y cells were pre-treated with […] cholesterol (+Chol) or normal medium (−Chol). Then Aβ uptake was measured following its preincubation with apoε3 (ε3) or apoε4 (ε4) in the absence (black) or the presence (gray) of about 400 ng/ml leptin. Cells were more resistant to taking-up Aβ when loaded with cholesterol. […] In panel (c), SY5Y cells were transiently transfected with SREBP-1 or SREBP-2 cDNA or an empty vector (Control). Then Aβ was measured in the medium by ELISAs (Figueiredo-Pereira et al., J Neurochem. 72:1417-22 (1999)) following treatment with (+) or without (−) leptin. […] In panel (d), Aβ uptake was measured in SY5Y cells prepared as in panel (c). Uptake was performed using Aβ/apoε3 complexes.

B1: Leptin: peptide hormone controlling adaptive metabolic mechanisms to energy availability; leptin (Harbor-UCLA) in vitro, recombinant murine leptin in mice (protein, UniProt P41160 22-167, looked up)
Leptin: VPIQKVQDDTKTLIKTIVTRINDISHTQSVSAKQRVTGLDFIPGLHPILSLSKMDQTLAVYQQVLTSLPSQNVLQIANDLENLRDLLHLLAFSKSCSLPQTSGLQKPESLDGVLEASLYSTEVVALSRLQGSLQDILQQLDVSPEC
filipin labelling (astrocytes; about 400 ng/ml leptin): diminished filipin labelling
increase in filipin labelling by cholesterol (astrocytes; leptin about 400 ng/ml plus cholesterol about 10 μg/ml): prohibited an increase
uptake of apoE-Aβ (SY5Y cells; 100 ng/ml or 400 ng/ml leptin, 24 h pre-incubation and uptake): increased the uptake of apoE-Aβ in a dose-dependent fashion
Aβ uptake phenotype of cholesterol-loaded cells (SY5Y cells; about 400 ng/ml leptin during cholesterol pre-incubation and during uptake): almost completely reversed

Reference: patent publication US8227408B2, “Leptin as an anti-amyloidogenic biologic and methods for delaying the onset and reducing Alzheimer's disease-like pathology” (Neurotez, Inc., priority 2005, dated 2012)
